From the supplement of paper PMC10567573

B1: KIAA0774 (parent)
chain: FEDEVKRLGWQQQAELQELEERLQ
B2: SCARA5 (parent)
chain: VTEDLRLKDWEHSIALRNISLAKG

Variants of: B1
Experiment: protein stability index of a GFP-peptide fusion (GPS, HEK-293T) (PSI 1-6); higher = more stable
Conditions: c terminus: a fixed tail appended
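Note: lentivirally expressed fusions sorted by FACS into six bins by GFP to DsRed ratio, PSI derived from sequencing read proportions per bin multiplied by bin number.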

Variant | protein stability index
FEDEVKRLGWQQQAELQELEERWQ | 3.88
FEDEVKRLGWQQQAELQELEERYQ | 4.51
FEDEVKRLGWQQQAELQELEERLA | 3.81
FEDEVKRLGWQQQAELQELEERLC | 4.22
FEDEVKRLGWQQQAELQELEERLD | 3.98
FEDEVKRLGWQQQAELQELEERLE | 3.8
FEDEVKRLGWQQQAELQELEERLF | 3.28
FEDEVKRLGWQQQAELQELEERLG | 4.62
FEDEVKRLGWQQQAELQELEERLH | 3.93
FEDEVKRLGWQQQAELQELEERLI | 3.41
FEDEVKRLGWQQQAELQELEERLK | 4.73
FEDEVKRLGWQQQAELQELEERLL | 3.48
FEDEVKRLGWQQQAELQELEERLM | 3.92
FEDEVKRLGWQQQAELQELEERLN | 4.48
FEDEVKRLGWQQQAELQELEERLP | 4.96
FEDEVKRLGWQQQAELQELEERLR | 4.14
FEDEVKRLGWQQQAELQELEERLS | 4.01
FEDEVKRLGWQQQAELQELEERLT | 3.99
FEDEVKRLGWQQQAELQELEERLV | 3.12
FEDEVKRLGWQQQAELQELEERLW | 3.49
FEDEVKRLGWQQQAELQELEERLY | 3.82

Variants of: B2
Experiment: as above
Conditions: c terminus: a fixed tail appended

Variant | protein stability index
ATEDLRLKDWEHSIALRNISLAKG | 3.77
CTEDLRLKDWEHSIALRNISLAKG | 2.72
DTEDLRLKDWEHSIALRNISLAKG | 3.75
ETEDLRLKDWEHSIALRNISLAKG | 3.98
FTEDLRLKDWEHSIALRNISLAKG | 2.81
GTEDLRLKDWEHSIALRNISLAKG | 3.15
HTEDLRLKDWEHSIALRNISLAKG | 3.89
ITEDLRLKDWEHSIALRNISLAKG | 3.54
KTEDLRLKDWEHSIALRNISLAKG | 3.34
LTEDLRLKDWEHSIALRNISLAKG | 3.26
MTEDLRLKDWEHSIALRNISLAKG | 3.5
NTEDLRLKDWEHSIALRNISLAKG | 3.98
PTEDLRLKDWEHSIALRNISLAKG | 3.88
QTEDLRLKDWEHSIALRNISLAKG | 4.04
RTEDLRLKDWEHSIALRNISLAKG | 3.39
STEDLRLKDWEHSIALRNISLAKG | 3.74
TTEDLRLKDWEHSIALRNISLAKG | 3.89
WTEDLRLKDWEHSIALRNISLAKG | 3.42
YTEDLRLKDWEHSIALRNISLAKG | 2.83
VAEDLRLKDWEHSIALRNISLAKG | 3.21
VCEDLRLKDWEHSIALRNISLAKG | 3.12
VDEDLRLKDWEHSIALRNISLAKG | 3.8
VEEDLRLKDWEHSIALRNISLAKG | 4.15
VFEDLRLKDWEHSIALRNISLAKG | 2.61
VGEDLRLKDWEHSIALRNISLAKG | 3.26

Variant | protein stability index
VHEDLRLKDWEHSIALRNISLAKG | 3.52
VIEDLRLKDWEHSIALRNISLAKG | 2.5
VKEDLRLKDWEHSIALRNISLAKG | 3.65
VLEDLRLKDWEHSIALRNISLAKG | 2.49
VMEDLRLKDWEHSIALRNISLAKG | 3.38
VNEDLRLKDWEHSIALRNISLAKG | 3.85
VPEDLRLKDWEHSIALRNISLAKG | 3.69
VQEDLRLKDWEHSIALRNISLAKG | 3.58
VREDLRLKDWEHSIALRNISLAKG | 3.21
VSEDLRLKDWEHSIALRNISLAKG | 3.11
VVEDLRLKDWEHSIALRNISLAKG | 3.48
VWEDLRLKDWEHSIALRNISLAKG | 2.46
VYEDLRLKDWEHSIALRNISLAKG | 3.17
VTADLRLKDWEHSIALRNISLAKG | 1.74
VTCDLRLKDWEHSIALRNISLAKG | 2.25
VTDDLRLKDWEHSIALRNISLAKG | 3.68
VTFDLRLKDWEHSIALRNISLAKG | 1.85
VTGDLRLKDWEHSIALRNISLAKG | 2.94
VTHDLRLKDWEHSIALRNISLAKG | 3.03
VTIDLRLKDWEHSIALRNISLAKG | 2.26
VTKDLRLKDWEHSIALRNISLAKG | 3
VTLDLRLKDWEHSIALRNISLAKG | 1.37
VTMDLRLKDWEHSIALRNISLAKG | 2.75
VTNDLRLKDWEHSIALRNISLAKG | 3.03
VTPDLRLKDWEHSIALRNISLAKG | 3.39

Variant | protein stability index
VTQDLRLKDWEHSIALRNISLAKG | 2.63
VTRDLRLKDWEHSIALRNISLAKG | 2.96
VTSDLRLKDWEHSIALRNISLAKG | 3.16
VTTDLRLKDWEHSIALRNISLAKG | 2.71
VTVDLRLKDWEHSIALRNISLAKG | 1.69
VTWDLRLKDWEHSIALRNISLAKG | 1.58
VTYDLRLKDWEHSIALRNISLAKG | 2.44
VTEALRLKDWEHSIALRNISLAKG | 2.87
VTECLRLKDWEHSIALRNISLAKG | 2.53
VTEELRLKDWEHSIALRNISLAKG | 3.45
VTEFLRLKDWEHSIALRNISLAKG | 2.03
VTEGLRLKDWEHSIALRNISLAKG | 3.04
VTEHLRLKDWEHSIALRNISLAKG | 3.43
VTEILRLKDWEHSIALRNISLAKG | 2.35
VTEKLRLKDWEHSIALRNISLAKG | 2.61
VTELLRLKDWEHSIALRNISLAKG | 2.26
VTEMLRLKDWEHSIALRNISLAKG | 2.45
VTENLRLKDWEHSIALRNISLAKG | 3.33
VTEPLRLKDWEHSIALRNISLAKG | 3.41
VTEQLRLKDWEHSIALRNISLAKG | 3.42
VTERLRLKDWEHSIALRNISLAKG | 3.16
VTESLRLKDWEHSIALRNISLAKG | 2.76
VTETLRLKDWEHSIALRNISLAKG | 3.03
